Data on five molecules can be found in US20120207771A1 (MORPHOTEK, published 2012).

In assay [1] the target is T1, folate receptor alpha (FRα), human (human, UniProt P15328 25-234).
T1 construct: also called FR-alpha; FOLR-1
Nature of the assay: sandwich EIA, biotin-labeled detector MORAb-003, capture MOV18, row '1-S' (label not explained).

The target of assay [2] is T1, folate receptor alpha (FRα), human. In words: sandwich ECLIA on serum, 19D4 as detector (Pair 2). How it is done: (§1) FRα levels in the serum of patients with ovarian cancer, patients with lung cancer, and normal controls were assessed. Serum FRα levels were assessed using ECLIA with two different pairs of capture-detector antibodies: Pair 1, in which 9F3 was the capture antibody and 24F12 was the detector antibody, and Pair 2, in which 26B3 was the capture antibody and 19D4 was the detector antibody.
(§2) The FRα pairs were tested with full calibrator curves and 196 individual serums diluted 1:4. In one experiment, 26B3 was used as the capture antibody after CR processing on a plate lot (75 μg/mL, +B, +T) and 19D4 was used as the detector antibody at 1.0 μg/mL. In another experiment, 9F3 was used as the capture antibody and 24F12 was used as the detector antibody at 1.0 μg/mL. Each were CR processed (lot 10070) with an label to protein ratio (L/P) of 13.3. Diluent 100 (Meso Scale Discovery, Gaithersburg, Md.)+human anti-mouse antibody (HAMA)+mIgG was used for samples and calibrator. Diluent 3 (Meso Scale Discovery, Gaithersburg, Md.) was used for detections.
(§3) The following protocol was employed for the ECLIA. Samples were added at 50 μL/well. The samples were shaken for 2 hours and subsequently washed with Phosphate Buffered Saline (PBS) solution with the detergent Tween 20 (PBST). […] Finally, the electrochemiluminescence (ECL) emission of the samples was read with 2×MSD® Buffer T.

Assay [3] has the same target. Nature of the assay: sandwich ECLIA on serum, 26B3 as capture (Pair 2). As for the experimental part: as §1, §2, §3
Assay [4] shares this target. In words: sandwich ECLIA on serum, 24F12 as detector (Pair 1). How it is done: as §1, §2, §3
Assay [5] has the same target. In words: sandwich ECLIA on serum, 9F3 as capture (Pair 1). How it is done: as §1, §2, §3

T1 sequence (P15328 25-234 limits assumed): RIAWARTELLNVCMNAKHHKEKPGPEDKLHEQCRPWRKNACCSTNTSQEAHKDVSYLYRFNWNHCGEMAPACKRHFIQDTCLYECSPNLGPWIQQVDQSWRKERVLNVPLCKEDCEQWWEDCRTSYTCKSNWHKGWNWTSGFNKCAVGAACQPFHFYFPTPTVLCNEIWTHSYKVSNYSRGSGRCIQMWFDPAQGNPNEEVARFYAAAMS

B1: MORAb-003 antibody (antibody, human IgG1, kappa, V domains shown)
VH: EVQLVESGGGVVQPGRSLRLSCSASGFTFSGYGLSWVRQAPGKGLEWVAMISSGGSYTYYADSVKGRFAISRDNAKNTLFLQMDSLRPEDTGVYFCARHGDDPAWFAYWGQGTPVTVSS
VL: DIQLTQSPSSLSASVGDRVTITCSVSSSISSNNLHWYQQKPGKAPKPWIYGTSNLASGVPSRFSGSGSGTDYTFTISSLQPEDIATYYCQQWSSYPYMYTFGQGTKVEIKR
notes: Used labeled with ruthenium chelate (ECLIA) or biotin (EIA) as detector, or unlabeled as capture antibody
With B1, in assay [1], the binding result is recorded as “binds”.

B2: 19D4.B7 antibody (antibody, mouse IgG2a, V domains shown)
VH: GAELVKPGASVKLSCTASGFNIKHPYMHWVKQRPDQGLEWIGRIDPANGNTKYDPKFQGKATITADTSSNTAYLQLSSLTSEDTAVYYCGREEVADYTMDYWGQGTSVTVSS
VL: PASLAVSLGQRATISCRASESVDTYGNNFIHWYQQKPGQPPKLLIYLASNLESGVPARFSGSGSRTDFTLTIDPVEADDAATYYCQQNNGDPWTFGGGTKLEIKR
notes: ATCC PTA-11884
For the molecule B2, the binding result in assay [2] was “binds”.

B3: 26B3.F2 antibody (antibody, mouse IgG1, V domains shown)
VH: GPELVKPGASVKISCKASDYSFTGYFMNWVMQSHGKSLEWIGRIFPYNGDTFYNQKFKGRATLTVDKSSSTAHMELRSLASEDSAVYFCARGTHYFDYWGQGTTLTVSS
VL: PASLSASVGETVTITCRTSENIFSYLAWYQQKQGISPQLLVYNAKTLAEGVPSRFSGSGSGTQFSLKINSLQPEDFGSYYCQHHYAFPWTFGGGSKLEIKR
notes: ATCC PTA-11885
Consider B3, for which, in assay [3], the binding result is recorded as “binds”.

B4: 24F12.B1 antibody (antibody, mouse IgG1, V domains shown)
VH: SGGGLVRPGGSLKLSCAASGFTFSSYAMSWVRQSPEKRLEWVAEIGSGGSYTYYPDTVTGRFTISRDNAKSTLYLEMSSLRSEDTAIYYCARETTAGYFDYWGQGTTLTVSS
VL: TSSLSASLGDRVTISCSASQGINNFLNWYQQKPDGTVKLLIYYTSSLHSGVPSRFSGSGSGTDYSLTISNLEPEDIAIYYCQHFSKLPWTFGGGTKLEIKR
notes: ATCC PTA-11886
Regarding B4, the binding result in assay [4] was “binds”.

B5: 9F3.H9.H3.H3.B5.G2 antibody (antibody, mouse IgG2a, V domains shown)
VH: ESGPGLVRPSQSLSLTCSVTGYSITSGYYWNWIRQFPGSRLEWMGYIKSDGSNNYNPSLKNRISITRDTSKNQFFLKLNSVTTEDTATYFCTREWKAMDYWGQGTSVTVSS
VL: PAIMSASPGEKVTMTCRASSTVSYSYLHWYQQKSGASPQLWIYGTSNLASGVPARFSGSGSGTSYSLTISSVEAEDAATYYCQQYSGYPLTFGAGTKLELKR
notes: ATCC PTA-11887
On to B5, for which, in assay [5], the binding result was “binds”.
